From patent US12667614B2, “Bacterial microcompartment virus-like particles” (National University of Singapore, priority 2020, dated 2026)

Tests used:
[1] = substrate: COc1ccccc1O; test: Steady-state kinetics of free APEX2 (guaiacol oxidation); assay type: biochemical, pea; conditions: other: free APEX2 10 nM, guaiacol 0.20 to 2.0 mM, H2O2 1 mM, TBS-50/350 pH 8.0, mean with standard error, triplicates, 30.0 °C
Method: (§1) For APEX2, all reagents were made to the appropriate working concentrations using TBS-50/350 pH 8.0. Working solutions of guaiacol and H2O2, both at 10 mM, were prepared on the day of assay. The guaiacol solution was shaken vigorously at 30° C. to ensure complete dissolution before equilibration back to room temperature. The assay concentration for APEX2 was 10 nM, H2O2 1 mM and that for guaiacol ranged from 0.20 to 2.0 mM. Total reaction volume was 200 μL. Reactions were monitored by the absorbance of tetraguaiacol formed at 470 nm using a BioTek Synergy™ HT microplate reader. […] This time point was taken for initial rate, V0, measurement. Kinetic constants were obtained using non-linear least square Michaelis-Menten fitting in GraphPad Prism software.
To probe the capacity of the Cso-BMC for encasing enzymes of considerably different molecular sizes, an evolved pea cytosolic ascorbate peroxidase (APEX2), a 27.0 kDa monomer [Lam et al., Nature Methods 12(1): 51-54 (2015)], and E. coli beta-galactosidase (LacZ), a 466.0 kDa homotetramer, were chosen for encapsulation [Golan, et al., Biochimica et Biophysica Acta (BBA)—Bioenergetics, 1293(2): 238-242; Lam et al., Nature Methods 12(1): 51-54 (2015)]. […] Enzymes were also N-terminally tagged with the hexahistidine (Hiss) tag to facilitate downstream removal of unencapsulated enzymes that might co-purify with shells (Nichols, Kennedy, & Tullman-Ercek, 2019). Cso-PSIIH shells co-expressed with enzymes were constructed and purified. SDS-PAGE analysis and Western blotting confirmed the presence of the target enzymes in shell samples (FIG. 18A-B) and the average copy numbers of enzymes per shell were estimated by Coomassie blue densitometry (Table 8) [Hagen, A., et al., Nature Communications 9: 2881 (2018); Nichols et al., Methods in Enzymology, 617, 155-186 (2019)].
Encapsulation of an enzyme into a protein shell is known to alter the enzyme's catalytic properties in some cases. […]

[2] = substrate: COc1ccccc1O; test: Steady-state kinetics of Cso-BMC encapsulated APEX2 (guaiacol oxidation); assay type: biochemical, pea; conditions: other: encapsulated APEX2 10 nM, guaiacol 0.20 to 2.0 mM, H2O2 1 mM, TBS-50/350 pH 8.0, mean with standard error, triplicates, 30.0 °C
Method: as §1
To probe the capacity of the Cso-BMC for encasing enzymes of considerably different molecular sizes, an evolved pea cytosolic ascorbate peroxidase (APEX2), a 27.0 kDa monomer [Lam et al., Nature Methods 12(1): 51-54 (2015)], and E. coli beta-galactosidase (LacZ), a 466.0 kDa homotetramer, were chosen for encapsulation [Golan, et al., Biochimica et Biophysica Acta (BBA)—Bioenergetics, 1293(2): 238-242; Lam et al., Nature Methods 12(1): 51-54 (2015)]. […]

| Protein | Km [1] [mM] | kcat [1] [s⁻¹] | kcat/Km [1] | Km [2] [mM] |
| --- | --- | --- | --- | --- |
| Free APEX2 (evolved pea cytosolic ascorbate peroxidase), N-terminal His6, fused to S2CP(30); APEX2-S2CP(30), SEQ ID NO: 110 (Glycine max; A134P/E112K/K14D/W41F) (protein) MGSSHHHHHHSSGMGKSYPTVSADYQDAVEKAKKKLRGFIAEKRCAPLMLRLAFHSAGTFDKGTKTGGPFGTIKHPAELAHSANNGLDIAVRLLEPLKAEFPILSYADFYQLAGVVAVEVTGGPKVPFHPGREDKPEPPPEGRLPDPTKGSDHLRDVFGKAMGLTDQDIVALSGGHTIGAAHKERSGFEGPWTSNPLIFDNSYFTELLSGEKEGLLQLPSDKALLSDPVFRPLVDKYAADEDAFFADYAEAHQKLSELGFADAGSSKPEKPGSKITGSSGNDTQGSLITYSGGARG | 0.58 ± 0.07 | 460 ± 20 | 7.93 ± 1.02 × 10^5 (s^−1 · M^−1) |  |
| APEX2 + shell: APEX2 (evolved pea cytosolic ascorbate peroxidase), N-terminal His6, fused to S2CP(30), SEQ ID NO: 110, encapsulated in Cso-BMC (Cso-PSIIH) … (protein) MGSSHHHHHHSSGMGKSYPTVSADYQDAVEKAKKKLRGFIAEKRCAPLMLRLAFHSAGTFDKGTKTGGPFGTIKHPAELAHSANNGLDIAVRLLEPLKAEFPILSYADFYQLAGVVAVEVTGGPKVPFHPGREDKPEPPPEGRLPDPTKGSDHLRDVFGKAMGLTDQDIVALSGGHTIGAAHKERSGFEGPWTSNPLIFDNSYFTELLSGEKEGLLQLPSDKALLSDPVFRPLVDKYAADEDAFFADYAEAHQKLSELGFADAGSSKPEKPGSKITGSSGNDTQGSLITYSGGARG |  |  |  | 0.79 ± 0.12 |
